From US20240409645A1 (DUALYX, published 2024)

T1: human IL-2 receptor (IL-2Rα/IL-2Rβ/γc) (human, UniProt P01589 22-272; P14784 27-551; P31785 23-369)
T1 sequence 1: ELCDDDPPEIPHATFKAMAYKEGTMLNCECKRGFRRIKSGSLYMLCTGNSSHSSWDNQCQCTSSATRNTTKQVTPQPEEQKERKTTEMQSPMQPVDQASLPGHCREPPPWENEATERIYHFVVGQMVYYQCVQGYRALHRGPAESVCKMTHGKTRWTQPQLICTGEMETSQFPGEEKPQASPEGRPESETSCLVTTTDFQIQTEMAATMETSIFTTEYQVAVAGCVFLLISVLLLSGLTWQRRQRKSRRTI
T1 sequence 2: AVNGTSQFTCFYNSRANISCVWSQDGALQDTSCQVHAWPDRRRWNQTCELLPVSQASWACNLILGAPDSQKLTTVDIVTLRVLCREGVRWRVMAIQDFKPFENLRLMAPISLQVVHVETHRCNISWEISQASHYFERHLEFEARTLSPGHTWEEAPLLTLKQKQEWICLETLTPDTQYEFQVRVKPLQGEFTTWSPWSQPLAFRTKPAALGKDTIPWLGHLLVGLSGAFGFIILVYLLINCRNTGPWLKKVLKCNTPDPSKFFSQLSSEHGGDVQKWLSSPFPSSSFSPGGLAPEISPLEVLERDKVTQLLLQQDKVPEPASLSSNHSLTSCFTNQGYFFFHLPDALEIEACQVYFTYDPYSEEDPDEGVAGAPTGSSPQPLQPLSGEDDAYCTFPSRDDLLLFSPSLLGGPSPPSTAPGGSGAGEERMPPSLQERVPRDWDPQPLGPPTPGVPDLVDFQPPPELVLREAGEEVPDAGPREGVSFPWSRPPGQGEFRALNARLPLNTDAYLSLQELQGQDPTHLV
T1 sequence 3: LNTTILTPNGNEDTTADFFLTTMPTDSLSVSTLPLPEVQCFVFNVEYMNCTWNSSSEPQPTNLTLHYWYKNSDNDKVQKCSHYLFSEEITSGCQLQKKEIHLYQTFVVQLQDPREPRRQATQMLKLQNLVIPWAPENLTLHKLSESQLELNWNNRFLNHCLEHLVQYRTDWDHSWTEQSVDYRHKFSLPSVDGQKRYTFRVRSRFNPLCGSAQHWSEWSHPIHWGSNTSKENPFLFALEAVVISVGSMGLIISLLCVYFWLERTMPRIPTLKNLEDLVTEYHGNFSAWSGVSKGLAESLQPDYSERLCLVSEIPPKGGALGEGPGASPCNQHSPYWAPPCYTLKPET

B1: DC00062 (other)
chain 1: EVQLVESGGGLVQTGGSLRLSCAASGGTFSRDAMAWFRQVPGKEREFVALISWSGATTNYADSVKGRFAISRDNGKNTVYLQMNRLKPADTAIYYCAADRRPMGSRSYFEPTEYDDWGQGTQVTVSSGGGGSGGGGSGGGGSQVQLVESGGGLVQPGGSLRLSCATSGFTFRNNFMSWVRQAPGKGLEWVSTISYGGESTTYAESVKGRFTISRDNAKNTLYLQMNNLKPEDTAVYYCAKATSYDSIRSGSRGQGTQVTVSSDKTHTCPPCPAPEAAGGPSVFLFPPKPKDTLMISRTPEVTCVVVDVSHEDPEVKFNWYVDGVEVHNAKTKPREEQYNSTYRVVSVLTVLHQDWLNGKEYKCKVSNKALGAPIEKTISKAKGQPREPQVYTLPPSRDELTKNQVSLTCLVKGFYPSDIAVEWESNGQPENNYKTTPPVLDSDGSFLLYSKLTVDKSRWQQGNVFSCSVMHEALHNHYTQKSLSLSPGK
chain 2: EVQLVESGGGLVQTGGSLRLSCAASGGTFSRDAMAWFRQVPGKEREFVALISWSGATTNYADSVKGRFAISRDNGKNTVYLQMNRLKPADTAIYYCAADRRPMGSRSYFEPTEYDDWGQGTQVTVSSGGGGSGGGGSGGGGSQVQLVESGGGLVQPGGSLRLSCATSGFTFRNNFMSWVRQAPGKGLEWVSTISYGGESTTYAESVKGRFTISRDNAKNTLYLQMNNLKPEDTAVYYCAKATSYDSIRSGSRGQGTQVTVSSGGGGSGGGGSGGGGSQVQLVESGGGLVQAGGSLTLSCAAPGRTFGTDVVGWFRQAPGKEREFVASISRSGDGIYYDDSVKGRFTISRNNAWNTVNLQMNSLKVEDTAVYYCAAGDGWSTYDYWGQGTQVTVSSGGGGSGGGGSGGGGSDKTHTCPPCPAPEAAGGPSVFLFPPKPKDTLMISRTPEVTCVVVDVSHEDPEVKFNWYVDGVEVHNAKTKPREEQYNSTYRVVSVLTVLHQDWLNGKEYKCKVSNKALGAPIEKTISKAKGQPREPQVYTLPPSRDELTKNQVSLTCLVKGFYPSDIAVEWESNGQPENNYKTTPPVLDSDGSFFLYSRLTVDKSRWQQGNVFSCSVMHEALHNHYTQKSLSLSPGK
B2: DC00066 (other)
chain 1: B1 chain 1
chain 2: QVQLVESGGGLVQPGGSLRLSCATSGFTFRNNFMSWVRQAPGKGLEWVSTISYGGESTTYAESVKGRFTISRDNAKNTLYLQMNNLKPEDTAVYYCAKATSYDSIRSGSRGQGTQVTVSSGGGGSGGGGSGGGGSEVQLVESGGGLVQTGGSLRLSCAASGGTFSRDAMAWFRQVPGKEREFVALISWSGATTNYADSVKGRFAISRDNGKNTVYLQMNRLKPADTAIYYCAADRRPMGSRSYFEPTEYDDWGQGTQVTVSSGGGGSGGGGSGGGGSQVQLVESGGGLVQAGGSLTLSCAAPGRTFGTDVVGWFRQAPGKEREFVASISRSGDGIYYDDSVKGRFTISRNNAWNTVNLQMNSLKVEDTAVYYCAAGDGWSTYDYWGQGTQVTVSSGGGGSGGGGSGGGGSDKTHTCPPCPAPEAAGGPSVFLFPPKPKDTLMISRTPEVTCVVVDVSHEDPEVKFNWYVDGVEVHNAKTKPREEQYNSTYRVVSVLTVLHQDWLNGKEYKCKVSNKALGAPIEKTISKAKGQPREPQVYTLPPSRDELTKNQVSLTCLVKGFYPSDIAVEWESNGQPENNYKTTPPVLDSDGSFFLYSRLTVDKSRWQQGNVFSCSVMHEALHNHYTQKSLSLSPGK
B3: DC00064 (other)
chain 1: B1 chain 1
chain 2: QVQLVESGGGLVQPGGSLRLSCATSGFTFRNNFMSWVRQAPGKGLEWVSTISYGGESTTYAESVKGRFTISRDNAKNTLYLQMNNLKPEDTAVYYCAKATSYDSIRSGSRGQGTQVTVSSGGGGSGGGGSGGGGSQVQLVESGGGLVQAGGSLTLSCAAPGRTFGTDVVGWFRQAPGKEREFVASISRSGDGIYYDDSVKGRFTISRNNAWNTVNLQMNSLKVEDTAVYYCAAGDGWSTYDYWGQGTQVTVSSGGGGSGGGGSGGGGSEVQLVESGGGLVQTGGSLRLSCAASGGTFSRDAMAWFRQVPGKEREFVALISWSGATTNYADSVKGRFAISRDNGKNTVYLQMNRLKPADTAIYYCAADRRPMGSRSYFEPTEYDDWGQGTQVTVSSGGGGSGGGGSGGGGSDKTHTCPPCPAPEAAGGPSVFLFPPKPKDTLMISRTPEVTCVVVDVSHEDPEVKFNWYVDGVEVHNAKTKPREEQYNSTYRVVSVLTVLHQDWLNGKEYKCKVSNKALGAPIEKTISKAKGQPREPQVYTLPPSRDELTKNQVSLTCLVKGFYPSDIAVEWESNGQPENNYKTTPPVLDSDGSFFLYSRLTVDKSRWQQGNVFSCSVMHEALHNHYTQKSLSLSPGK
B4: DC00059 (other)
chain 1: QVQLVESGGGLVQPGGSLRLSCATSGFTFRNNFMSWVRQAPGKGLEWVSTISYGGESTTYAESVKGRFTISRDNAKNTLYLQMNNLKPEDTAVYYCAKATSYDSIRSGSRGQGTQVTVSSGGGGSGGGGSGGGGSEVQLVESGGGLVQTGGSLRLSCAASGGTFSRDAMAWFRQVPGKEREFVALISWSGATTNYADSVKGRFAISRDNGKNTVYLQMNRLKPADTAIYYCAADRRPMGSRSYFEPTEYDDWGQGTQVTVSSGGGGSGGGGSGGGGSDKTHTCPPCPAPEAAGGPSVFLFPPKPKDTLMISRTPEVTCVVVDVSHEDPEVKFNWYVDGVEVHNAKTKPREEQYNSTYRVVSVLTVLHQDWLNGKEYKCKVSNKALGAPIEKTISKAKGQPREPQVYTLPPSRDELTKNQVSLTCLVKGFYPSDIAVEWESNGQPENNYKTTPPVLDSDGSFLLYSKLTVDKSRWQQGNVFSCSVMHEALHNHYTQKSLSLSPGK
chain 2: QVQLVESGGGLVQAGGSLTLSCAAPGRTFGTDVVGWFRQAPGKEREFVASISRSGDGIYYDDSVKGRFTISRNNAWNTVNLQMNSLKVEDTAVYYCAAGDGWSTYDYWGQGTQVTVSSGGGGSGGGGSGGGGSQVQLVESGGGLVQPGGSLRLSCATSGFTFRNNFMSWVRQAPGKGLEWVSTISYGGESTTYAESVKGRFTISRDNAKNTLYLQMNNLKPEDTAVYYCAKATSYDSIRSGSRGQGTQVTVSSGGGGSGGGGSGGGGSEVQLVESGGGLVQTGGSLRLSCAASGGTFSRDAMAWFRQVPGKEREFVALISWSGATTNYADSVKGRFAISRDNGKNTVYLQMNRLKPADTAIYYCAADRRPMGSRSYFEPTEYDDWGQGTQVTVSSGGGGSGGGGSGGGGSDKTHTCPPCPAPEAAGGPSVFLFPPKPKDTLMISRTPEVTCVVVDVSHEDPEVKFNWYVDGVEVHNAKTKPREEQYNSTYRVVSVLTVLHQDWLNGKEYKCKVSNKALGAPIEKTISKAKGQPREPQVYTLPPSRDELTKNQVSLTCLVKGFYPSDIAVEWESNGQPENNYKTTPPVLDSDGSFFLYSRLTVDKSRWQQGNVFSCSVMHEALHNHYTQKSLSLSPGK
B5: DC00061 (other)
chain 1: B4 chain 1
chain 2: QVQLVESGGGLVQAGGSLTLSCAAPGRTFGTDVVGWFRQAPGKEREFVASISRSGDGIYYDDSVKGRFTISRNNAWNTVNLQMNSLKVEDTAVYYCAAGDGWSTYDYWGQGTQVTVSSGGGGSGGGGSGGGGSQVQLVESGGGLVQPGGSLRLSCATSGFTFRNNFMSWVRQAPGKGLEWVSTISYGGESTTYAESVKGRFTISRDNAKNTLYLQMNNLKPEDTAVYYCAKATSYDSIRSGSRGQGTQVTVSSDKTHTCPPCPAPEAAGGPSVFLFPPKPKDTLMISRTPEVTCVVVDVSHEDPEVKFNWYVDGVEVHNAKTKPREEQYNSTYRVVSVLTVLHQDWLNGKEYKCKVSNKALGAPIEKTISKAKGQPREPQVYTLPPSRDELTKNQVSLTCLVKGFYPSDIAVEWESNGQPENNYKTTPPVLDSDGSFFLYSRLTVDKSRWQQGNVFSCSVMHEALHNHYTQKSLSLSPGK

Target: T1, human IL-2 receptor (IL-2Rα/IL-2Rβ/γc)
Test: cell-based or functional assay

Binder | EC50 (nM) pSTAT5, NK, human PBMCs | EC50 (nM) pSTAT5, Treg, human PBMCs | Fold Max signal (% pSTAT5+) Treg/NK | Max signal (% pSTAT5+), NK | Max signal (% pSTAT5+), Treg | fold EC50 NK/Treg
B1 | 0.0307 nM | < 0.1 pM | 4 fold | 22 % pSTAT5+ | 93 % pSTAT5+ | > 307 fold
B2 | 0.178 nM | < 0.1 pM | 4 fold | 27 % pSTAT5+ | 96 % pSTAT5+ | > 1780 fold
B3 | 0.186 nM | < 0.1 pM | 2 fold | 38 % pSTAT5+ | 94 % pSTAT5+ | > 1860 fold
B4 | 0.0401 nM | 0.252 pM | 6 fold | 14 % pSTAT5+ | 86 % pSTAT5+ | 159 fold
B5 | 0.165 nM | 0.00427 nM | 9 fold | 5 % pSTAT5+ | 44 % pSTAT5+ | 39 fold
